The values below come from patent US9802997B2, “Peptides and combination of peptides for use in immunotherapy against various tumors” (immatics biotechnologies GmbH, priority 2015, dated 2017).

The test concerns the target HLA-A*02:01 (Homo sapiens, UniProt P04439, D140Y/D185E/D98H/E176V/E277Q/G131W/G231S/I119V/I121R/I166T/I218V/L300P/L318F/N151K/N90K/P208A/P217A/Q86G/Q94H/R138H/R169H/T345S). The experiment in a line: MHC binding assay (UV-ligand exchange, beta2m ELISA). To be noted: binding to HLA-A*02:01, β2m ELISA. An excerpt: Candidate peptides for T cell based therapies according to the present invention were further tested for their MHC binding capacity (affinity). The individual peptide-MHC complexes were produced by UV-ligand exchange, where a UV-sensitive peptide is cleaved upon UV-irradiation, and exchanged with the peptide of interest as analyzed. Only peptide candidates that can effectively bind and stabilize the peptide-receptive MHC molecules prevent dissociation of the MHC complexes. To determine the yield of the exchange reaction, an ELISA was performed based on the detection of the light chain (β2m) of stabilized MHC complexes. The assay was performed as generally described in Rodenko et al. (Rodenko et al., 2006).
96 well MAXISorp plates (NUNC) were coated over night with 2 ug/ml streptavidin in PBS at room temperature, washed 4× and blocked for 1 h at 37° C. in 2% BSA containing blocking buffer. Refolded HLA-A*02:01/MLA-001 monomers served as standards, covering the range of 15-500 ng/ml. Peptide-MHC monomers of the UV-exchange reaction were diluted 100 fold in blocking buffer. Samples were incubated for 1 h at 37° C., washed four times, incubated with 2 ug/ml HRP conjugated anti-β2m for 1 h at 37° C., washed again and detected with TMB solution that is stopped with […]. Absorption was measured at 450 nm. Candidate peptides that show a high exchange yield (preferably higher than 50%, most preferred higher than 75%) are generally preferred for a generation and production of antibodies or fragments thereof, and/or T cell receptors or fragments thereof, as they show sufficient avidity to the MHC molecules and prevent dissociation of the MHC complexes.
Background: In an ELISA, binding on a coated surface is turned into a signal by an enzyme label.

With “280 (HLWGHALFL; listed as Homo sapiens) [compound 280]”, the “Peptide exchange (MHC class I binding score, peptide exchange yield)” value (“Peptide exchange” below) is on record as “+++ (≧50 = +++)”.

Consider “198 (ILTNKVVSV; listed as Homo sapiens) [compound 198]”, for which the “Peptide exchange” value was “++ (≧20% = ++)”. The value for “182 (GLQDGFQITV; listed as Homo sapiens) [compound 182]” was “+++ (≧50 = +++)”.

Consider “71 (HMSGKLTNV; listed as Homo sapiens) [compound 71]”, for which the “Peptide exchange” value was “++ (≧20% = ++)”. On to “215 (QIADIVTSV; listed as Homo sapiens) [compound 215]”, for which the “Peptide exchange” value is given as “++ (≧20% = ++)”. The value for “70 (GLTEKTVLV; listed as Homo sapiens) [compound 70]” was “++ (≧20% = ++)”; that for “253 (KLLAVIHEL; listed as Homo sapiens) [compound 253]” was “+++ (≧50 = +++)”; that for “147 (GLLSALENV; listed as Homo sapiens) [compound 147]” was “+++ (≧50 = +++)”.

In the case of “44 (AVFNLVHVV; listed as Homo sapiens) [compound 44]”, the “Peptide exchange” value was “+++ (≧50 = +++)”. The value for “214 (ALFETLIQL; listed as Homo sapiens) [compound 214]” was “+++ (≧50 = +++)”. The value for “76 (FTAEFLEKV; listed as Homo sapiens) [compound 76]” was “+++ (≧50 = +++)”; that for “143 (MLWESIMRV; listed as Homo sapiens) [compound 143]” was “+++ (≧50 = +++)”. The value for “171 (LLLLDVPTA; listed as Homo sapiens) [compound 171]” was “++ (≧20% = ++)”. As for “36 (TVLQELINV; listed as Homo sapiens) [compound 36]”, the “Peptide exchange” value is “+++ (≧50 = +++)”. With “144 (FLISQTPLL; listed as Homo sapiens) [compound 144]”, the “Peptide exchange” value was “+++ (≧50 = +++)”. On to “119 (SLIEESEEL; listed as Homo sapiens) [compound 119]”, for which the “Peptide exchange” value is “++ (≧20% = ++)”. The value for “211 (LLTTVLINA; listed as Homo sapiens) [compound 211]” was “+++ (≧50 = +++)”; that for “40 (KIWEELSVLEV; listed as Homo sapiens) [compound 40]” was “+++ (≧50 = +++)”; that for “99 (TLFGIQLTEA; listed as Homo sapiens) [compound 99]” was “+++ (≧50 = +++)”. The value for “7 (ALLQALMEL; listed as Homo sapiens) [compound 7]” was “+++ (≧50 = +++)”; that for “239 (VIIKGLEEITV; listed as Homo sapiens) [compound 239]” was “+++ (≧50 = +++)”; that for “251 (LLWGNLPEI; listed as Homo sapiens) [compound 251]” was “+++ (≧50 = +++)”. The value for “210 (GLAGDNIYL; listed as Homo sapiens) [compound 210]” was “+++ (≧50 = +++)”; that for “133 (FLDGRPLTL; listed as Homo sapiens) [compound 133]” was “++ (≧20% = ++)”. As for “158 (YLDPLWHQL; listed as Homo sapiens) [compound 158]”, the “Peptide exchange” value is “+++ (≧50 = +++)”. As for “62 (SLVENIHVL; listed as Homo sapiens) [compound 62]”, the “Peptide exchange” value is “+++ (≧50 = +++)”. The same measure for “47 (GLNGFNVLL; listed as Homo sapiens) [compound 47]”: “+++ (≧50 = +++)”. The same measure for “204 (SEWGSPHAAVP; listed as Homo sapiens) [compound 204]”: “+++ (≧50 = +++)”; for “276 (RMPTVLQCV; listed as Homo sapiens) [compound 276]”: “+++ (≧50 = +++)”. As to “266 (FLLDKPQDL; listed as Homo sapiens) [compound 266]”, the “Peptide exchange” value is recorded as “++ (≧20% = ++)”. With “270 (TLLTFFHEL; listed as Homo sapiens) [compound 270]”, the “Peptide exchange” value is recorded as “+++ (≧50 = +++)”. The same measure for “224 (LLFDWSGTGRADA; listed as Homo sapiens) [compound 224]”: “+++ (≧50 = +++)”; for “28 (IKVTDPQLLEL; listed as Homo sapiens) [compound 28]”: “++ (≧20% = ++)”; for “275 (AVPPPPSSV; listed as Homo sapiens) [compound 275]”: “++ (≧20% = ++)”.

“195 (VIIQNLPAL; listed as Homo sapiens) [compound 195]”: the “Peptide exchange” value is listed as “+++ (≧50 = +++)”. The value for “11 (LLDPKTIFL; listed as Homo sapiens) [compound 11]” was “+++ (≧50 = +++)”; that for “6 (FLNAIETAL; listed as Homo sapiens) [compound 6]” was “++++ (≧75% = ++++)”; that for “231 (LLDDIFIRL; listed as Homo sapiens) [compound 231]” was “+++ (≧50 = +++)”. As to “74 (GLAFLPASV; listed as Homo sapiens) [compound 74]”, the “Peptide exchange” value is given as “++ (≧20% = ++)”. The same measure for “138 (GIINKLVTV; listed as Homo sapiens) [compound 138]”: “++ (≧20% = ++)”; for “258 (QLVQRVASV; listed as Homo sapiens) [compound 258]”: “++ (≧20% = ++)”.

On to “162 (GLLGNLLTSL; listed as Homo sapiens) [compound 162]”, for which the “Peptide exchange” value was “+++ (≧50 = +++)”.

For “235 (SLLNQPKAV; listed as Homo sapiens) [compound 235]”, the “Peptide exchange” value is reported as “++ (≧20% = ++)”.

Turning to “64 (SLYAGSNNQV; listed as Homo sapiens) [compound 64]”, the “Peptide exchange” value is recorded as “++ (≧20% = ++)”. The value for “126 (QLREAFEQL; listed as Homo sapiens) [compound 126]” was “+++ (≧50 = +++)”. For the substance “72 (VLSTRVTNV; listed as Homo sapiens) [compound 72]”, the “Peptide exchange” value is recorded as “++ (≧20% = ++)”.

With “244 (NVAEIVIHI; listed as Homo sapiens) [compound 244]”, the “Peptide exchange” value is reported as “+++ (≧50 = +++)”. Take “226 (SLAGNLQEL; listed as Homo sapiens) [compound 226]”: the “Peptide exchange” value is given as “+++ (≧50 = +++)”. With “114 (LLFPSDVQTL; listed as Homo sapiens) [compound 114]”, the “Peptide exchange” value is “++ (≧20% = ++)”. The same measure for “151 (DISKRIQSL; listed as Homo sapiens) [compound 151]”: “++ (≧20% = ++)”. The same measure for “269 (GLLDCPIFL; listed as Homo sapiens) [compound 269]”: “++++ (≧75% = ++++)”; for “18 (KTASINQNV; listed as Homo sapiens) [compound 18]”: “++ (≧20% = ++)”; for “161 (NLLDENVCL; listed as Homo sapiens) [compound 161]”: “++++ (≧75% = ++++)”.

Regarding “194 (KLLEEVQLL; listed as Homo sapiens) [compound 194]”, the “Peptide exchange” value is given as “++ (≧20% = ++)”. For the substance “16 (SLADLSLLL; listed as Homo sapiens) [compound 16]”, the “Peptide exchange” value is reported as “+++ (≧50 = +++)”. The same measure for “216 (ALSTVTPRI; listed as Homo sapiens) [compound 216]”: “++ (≧20% = ++)”; for “283 (ALSELLQQV; listed as Homo sapiens) [compound 283]”: “+++ (≧50 = +++)”.
